Experimental data: paper doi:10.1101/528042 (bioRxiv, 2019)

Target: the molecule itself
Assay: SEC

B1: S-OPA1 (short S1 isoform of splice form 1 human OPA1), wild type (natural protein, UniProt O60313 196-960, looked up)
chain: TDRGSESDKHFRKVSDKEKIDQLQEELLHTQLKYQRILERLEKENKELRKLVLQKDDKGIHHRKLKKSLIDMYSEVLDVLSDYDASYNTQDHLPRVVVVGDQSAGKTSVLEMIAQARIFPRGSGEMMTRSPVKVTLSEGPHHVALFKDSSREFDLTKEEDLAALRHEIELRMRKNVKEGCTVSPETISLNVKGPGLQRMVLVDLPGVINTVTSGMAPDTKETIFSISKAYMQNPNAIILCIQDGSVDAERSIVTDLVSQMDPHGRRTIFVLTKVDLAEKNVASPSRIQQIIEGKLFPMKALGYFAVVTGKGNSSESIEAIREYEEEFFQNSKLLKTSMLKAHQVTTRNLSLAVSDCFWKMVRESVEQQADSFKATRFNLETEWKNNYPRLRELDRNELFEKAKNEILDEVISLSQVTPKHWEEILQQSLWERVSTHVIENIYLPAAQTMNSGTFNTTVDIKLKQWTDKQLPNKAVEVAWETLQEEFSRFMTEPKGKEHDDIFDKLKEAVKEESIKRHKWNDFAEDSLRVIQHNALEDRSISDKQQWDAAIYFMEEALQARLKDTENAIENMVGPDWKKRWLYWKNRTQEQCVHNETKNELEKMLKCNEEHPAYLASDEITTVRKNLESRGVEVDPSLIKDTWHQVYRRHFLKTALNHCNLCRRGFYYYQRHFVDSELECNDVVLFWRIQRMLAITANTLRQQLTNTEVRRLEKNVKEVLEDFAEDGEKKIKLLTGKRVQLAEDLKKVREIQEKLDAFIEALHQEK
stoichiometry N: 2
